Measurements: paper PMC9002095 (2022)

Legend:
[1] = target: human CD47 (human, UniProt Q08722 19-323); experiment: SPR
[2] = target: BSA (bovine, UniProt P02769 25-607); experiment: ELISA
Chain of BSA (P02769 25-607): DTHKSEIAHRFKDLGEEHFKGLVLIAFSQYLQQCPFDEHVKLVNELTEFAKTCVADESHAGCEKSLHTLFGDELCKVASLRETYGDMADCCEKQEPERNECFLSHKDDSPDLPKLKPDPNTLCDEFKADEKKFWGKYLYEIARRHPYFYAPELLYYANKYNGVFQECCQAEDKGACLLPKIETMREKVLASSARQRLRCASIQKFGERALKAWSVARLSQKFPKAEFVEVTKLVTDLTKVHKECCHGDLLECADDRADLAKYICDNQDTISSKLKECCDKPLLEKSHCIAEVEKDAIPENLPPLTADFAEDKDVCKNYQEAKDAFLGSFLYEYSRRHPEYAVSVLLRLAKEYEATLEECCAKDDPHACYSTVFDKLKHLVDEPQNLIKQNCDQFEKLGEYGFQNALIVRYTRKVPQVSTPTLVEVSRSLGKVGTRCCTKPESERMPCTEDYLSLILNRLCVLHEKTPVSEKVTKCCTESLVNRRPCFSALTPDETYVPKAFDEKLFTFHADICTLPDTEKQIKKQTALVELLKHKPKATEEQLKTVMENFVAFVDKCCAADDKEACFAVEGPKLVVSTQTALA

Chain of human CD47 (Q08722 19-323): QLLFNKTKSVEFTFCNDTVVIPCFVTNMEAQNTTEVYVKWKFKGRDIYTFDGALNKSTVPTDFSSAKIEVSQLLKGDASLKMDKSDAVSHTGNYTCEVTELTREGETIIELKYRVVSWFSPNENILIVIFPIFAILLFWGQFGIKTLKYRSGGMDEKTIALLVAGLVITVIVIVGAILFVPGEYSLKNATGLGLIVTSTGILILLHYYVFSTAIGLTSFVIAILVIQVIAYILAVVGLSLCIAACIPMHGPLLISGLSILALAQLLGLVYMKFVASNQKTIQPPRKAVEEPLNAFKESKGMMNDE

Binder	koff [1]	Kd [2]
TKKTLRT–SIRPαFc conjugate (Fc fusion, free amino groups joined through Sulfo-SMCC to the cysteine of the peptide TKKTLRTC; one or two peptides on one SIRPαFc (MALDI-TOF-MS); sites not told | sulfhydryl of the C-terminal cysteine joined to the maleimide group of Sulfo-SMCC) chain 1: EEELQVIQPDKSVLVAAGETATLRCTATSLIPVGPIQWFRGAGPGRELIYNQKEGHFPRVTTVSDLTKRNNMDFSIRIGNITPADAGTYYCVKFRKGSPDDVEFKSG chain 2: TKKTLRTC	0.00958 s⁻¹	56.8 nM
human SIRPαFc fusion protein (Fc fusion) EEELQVIQPDKSVLVAAGETATLRCTATSLIPVGPIQWFRGAGPGRELIYNQKEGHFPRVTTVSDLTKRNNMDFSIRIGNITPADAGTYYCVKFRKGSPDDVEFKSG	0.00727 s⁻¹	4.25 nM
